Results on seven molecules are retold here after publication PMC11960969, “Mdga2 deficiency leads to an aberrant activation of BDNF/TrkB signaling that underlies autism-relevant synaptic and behavioral changes in mice” (PLOS Biology, 2025).

B1: sp¦P28076¦PSB9_MOUSE (protein, UniProt P28076 21-219, looked up)
Proteasome subunit beta type-9: TTIMAVEFDGGVVVGSDSRVSAGTAVVNRVFDKLSPLHQRIFCALSGSAADAQAIADMAAYQLELHGLELEEPPLVLAAANVVKNISYKYREDLLAHLIVAGWDQREGGQVYGTMGGMLIRQPFTIGGSGSSYIYGYVDAAYKPGMTPEECRRFTTNAITLAMNRDGSSGGVIYLVTITAAGVDHRVILGDELPKFYDE
B2: sp¦Q8BZ60¦STON2_MOUSE (protein, UniProt Q8BZ60 1-895, looked up)
Stonin-2: MTTLDHVIATHQSEWVSFSEEPLFPTPLEGGTEEHFPGLSSSSERSESSSGENHVVDEGSQDLSHSEQDDSSEKMGLISEAASPPGSPVQPTPDLASAISNWVQFEDDTPWSSTSPPHKETALTLTMPCWTCPSFDSLRRCPLTSESSWTTHSEDTSSPSVAPSYTDLQLINTEEQASGRASGTDSTDNSSSLQEDEEVEMEAISWWAGSPAMNGHPAAPPVTTARFPSWVTFEDNEVGCPSPPVPSPKKPNTPSAATAAPDVPFNSTGSFKRDRPKSTLMNLPKVQKLDISSLNRPPSVIEAPPWRATNPFLNETLQDVQPSPINPFSAFFEEQERRSQNSSVSSTTGKSQRDSLIVVYQDAISFDDSGKSQPHPDAIEKLKQLQIDDPDPVGNTALPDDDPTASVELDAPSPASALSQPRDGWPMMLRIPEKKNIMSSRHWGPIYIKLTASGYLQLYYEQGLEKPFREFKLEICHEVSEPRLQNYDENGRIHSLRIDRVTYKEKKKYQPKPAVAHAAEREQVIKLGTTNYDDFRSFIHAVQDRLMDLPVLSMDLSTVGLNYLEEEITVDVRDEFSGTVGKGDNQILQHHVLTRIHILSFLSGLAECRLGLNDILIKGNEIVSRQDIMPTTTTKWIKLHECRFHGCVDEDVFNSSRVILFNPLDACRFELMRFRTVFAEKTLPFTLRTAASINGAEVEVQSWLRMSPGFSSNRDPLTQVPCENVMVRYPVPSEWVKNFRRDSVLGEKSLKAKVNRGASFGSAGASGSEPVMRVTLGTAKYEHAFNSIVWRINRLPDKNSASGHPHCFFCHLELGSDREVPSRFANYVNVEFSMPTTSASKAAVRSVSVEDKPDVRKWVNYSAHYSYKVEIEQKKSLKPDFEGEDLENPKECGVQ
B3: sp¦P50172¦DHI1_MOUSE (protein, UniProt P50172 1-292, looked up)
11-beta-hydroxysteroid …: MAVMKNYLLPILVLFLAYYYYSTNEEFRPEMLQGKKVIVTGASKGIGREMAYHLSKMGAHVVLTARSEEGLQKVVSRCLELGAASAHYIAGTMEDMTFAEQFIVKAGKLMGGLDMLILNHITQTSLSLFHDDIHSVRRVMEVNFLSYVVMSTAALPMLKQSNGSIAVISSLAGKMTQPMIAPYSASKFALDGFFSTIRTELYITKVNVSITLCVLGLIDTETAMKEISGIINAQASPKEECALEIIKGTALRKSEVYYDKSPLTPILLGNPGRKIMEFFSLRYYNKDMFVSN
B4: sp¦Q3TVI8¦PBIP1_MOUSE (protein, UniProt Q3TVI8 1-727, looked up)
Pre-B-cell leukemia …: MASCPDSDNSWVLAGSENLPVETLGPEPRMDPESEGASQALRDSSKADGKELAGTLDGEEKLFQTESSQRETAVLTESAAKGTLGADGHGTEAPGDTVVQEDSQETPVATSLGPDTQDLESEIHPQNLPSSPRAVWKEHRCSSSDDDTDVDVEGLRRRRGREPSSSQPVVPVDVEDQAKGEGIGGELGISLNMCFLGALVLLGLGILLFSGTLLEPETGPMEEAELQVFPETGPETELVETLGNRQDEIEHLQASSVPPDSVPSLQSMGFLLDKLAKENQDIRLLQAQLQAQKEELQSLLHQPKGLEEENARLREALQQGKTSHQALESELQQLRARLQGLEANCVRGVDGVCLNWGGDPQDGKATKEQGHKGQEPDPSLLEQHKQLEAEAKALRQELQRQWQLLGSVHWDLQRGLRDAGRGAPAHPGLAELGHMLAQTLQDLENQGINTGRSPNDSEAWHQKKPHTQSPREWGGKEKWRGGQRDQKAEHWKPRKEESGQERQRSWRDEGREHTGRWREDRLRADESGSRKDSKRQDPKVHPRKDGNSHSVERQKHSWGKDNSPDALSSWEELLRRKYRPPQGCSGVADCARQEGLALFGVELAPVRQQELASVLREYLSRLPWAGQLTKQLPLSPAYFGEDGIFRHDRLRFRDFVDALEDSLEEVALKQTGDDDEVDDFEDFVFGHFFGDKALKKRSRKKEKHSWNPRVVGPREEHSRHPHHYHQG
B5: sp¦P43135¦COT2_MOUSE (protein, UniProt P43135 1-414, looked up)
COUP transcription factor 2: MAMVVSTWRDPQDEVPGSQGSQASQAPPVPGPPPGAPHTPQTPGQGGPASTPAQTAAGGQGGPGGPGSDKQQQQQHIECVVCGDKSSGKHYGQFTCEGCKSFFKRSVRRNLSYTCRANRNCPIDQHHRNQCQYCRLKKCLKVGMRREAVQRGRMPPTQPTHGQFALTNGDPLNCHSYLSGYISLLLRAEPYPTSRFGSQCMQPNNIMGIENICELAARMLFSAVEWARNIPFFPDLQITDQVALLRLTWSELFVLNAAQCSMPLHVAPLLAAAGLHASPMSADRVVAFMDHIRIFQEQVEKLKALHVDSAEYSCLKAIVLFTSDACGLSDVAHVESLQEKSQCALEEYVRSQYPNQPTRFGKLLLRLPSLRTVSSSVIEQLFFVRLVGKTPIETLIRDMLLSGSSFNWPYMAIQ
B6: sp¦Q9D7X1¦KCTD4_MOUSE (protein, UniProt Q9D7X1 1-259, looked up)
BTB/POZ domain-containing …: MERKIIRREKEREYEGRHNSVEDAEQGKNCKSTLMTLNVGGYLYITQKQTLTKYPDTFLEGIVNGKILCPFDADGHYFIDRDGLLFRHVLNFLRNGELLLPEGFRENQLLAQEAEFFQLKGLAEEVKSRWEKEQLTPRETTFLEITDNHDRSQGLRIFCNAPDFISKIKSRIVLVSKSRLDGFPEEFSVSSNIIQFKYFIKSENGTRLVLKEDNTFVCTLETLKFEAIMMALKCGFRLLTSLDCSKGSIVHSDALHFIK
B7: sp¦Q8BUB4¦WDFY2_MOUSE (protein, UniProt Q8BUB4 1-400, looked up)
WD repeat and FYVE …: MAAEIQPQPLTRKPILLQRVEGSQEVVNMAVIVPKEEGVISVSEDRTVRVWLKRDSGQYWPSIYHAMPSPCSCMSFNPETRRLSIGLDNGTISEFILSEDYNKMTPVKNYQAHQSRVTMVLFVLELEWVLSTGQDKQFAWHCSESGQRLGGYRTSAVASGLQFDVETRHVFIGDHSGQVTILKLEQENCTLLTSFRGHTGGVTALCWDPVQRVLFSGSSDHSVIMWDIGGRKGTAIELQGHNDKVQALSYAQHTRQLISCGGDGGIVVWNMDVERQETPEWLDSDSCQKCDQPFFWNFKQMWDSKKIGLRQHHCRKCGKAVCGKCSSKRSSIPLMGFEFEVRVCDSCHEAITDEERAPTATFHDSKHNIVHVHFDATRGWLLTSGTDKVIKLWDMTPVVS

One assay concerns hippocampal proteins. The assay can be described thus: DIA quantification proteomics, hippocampus of Mdga2+/- vs WT mice. Details: species or system mouse. Conditions: Mdga2+/- vs WT mouse hippocampus (HET-HIP-VS-WT-HIP); S3 Table, downregulated DEPs; SE, pvalue and adj_pvalue in own columns c3-c5. The method in brief: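 Hippocampi from 1.5–2-month-old male Mdga2+/− mice and WT littermates; 100 μg protein trypsin-digested, peptides high-pH fractionated. DDA-built spectral library, DIA by nano-LC–MS/MS with Spectronaut and mProphet QC. DEPs called at fold change >1.1 and p <0.05.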
B1 came in with a log2FC of -1.875.

As to B2, the log2FC is -1.549.

B3 yielded a log2FC of -1.766.

As to B4, the log2FC is listed as -1.692.

Regarding B5, the log2FC is reported as -1.636.

As to B6, the log2FC is listed as -1.758.

The molecule B7 came in with a log2FC of -1.823.

Still in this assay, the particulars now being: regulation class of the protein, HET-HIP-VS-WT-HIP; S3 Table, downregulated DEPs.
Regarding B1, the Class entry is “Down”.

In the case of B2, the Class entry is on record as “Down”.

Take B3: the Class result is “Down”.

As to B4, the Class result is “Down”.

Regarding B5, the Class result is on record as “Down”.

B6: the Class entry is reported as “Down”.

For the molecule B7, the Class entry was “Down”.
